In patent US20170189511A1:

B1: Peptide SEQ ID NO: 197 (…) (peptide)
peptide: EYSLFPGQVVI
B2: Peptide SEQ ID NO: 268 (…) (peptide)
peptide: QYLGQIQHI
B3: Peptide SEQ ID NO: 277 (…) (peptide)
peptide: VYQGHTALL
B4: Peptide SEQ ID NO: 201 (…) (peptide)
peptide: IYATEAHVF
B5: Peptide SEQ ID NO: 285 (…) (peptide)
peptide: HYPPVQVLF
B6: Peptide SEQ ID NO: 287 (…) (peptide)
peptide: LYITEPKTI
B7: Peptide SEQ ID NO: 207 (…) (peptide)
peptide: AYVVFVSTL
B8: Peptide SEQ ID NO: 209 (…) (peptide)
peptide: TYKDEGNDYF
B9: Peptide SEQ ID NO: 199 (…) (peptide)
peptide: RYAEEVGIF
B10: Peptide SEQ ID NO: 200 (…) (peptide)
peptide: YYGPSLFLL
B11: Peptide SEQ ID NO: 281 (…) (peptide)
peptide: PYRLIFEKF
B12: Peptide SEQ ID NO: 204 (…) (peptide)
peptide: TYELRYFQI
B13: Peptide SEQ ID NO: 218 (…) (peptide)
peptide: YYKSTSSAF
B14: Peptide SEQ ID NO: 270 (…) (peptide)
peptide: NYYEVHKELF
B15: Peptide SEQ ID NO: 222 (…) (peptide)
peptide: TFSVSSHLF
B16: Peptide SEQ ID NO: 269 (…) (peptide)
peptide: YFIDSTNLKTHF
B17: Peptide SEQ ID NO: 202 (…) (peptide)
peptide: VYWDSAGAAHF

These binders were tested against HLA-A*24 (peptide-receptive MHC class I monomer of the UV-ligand exchange assay) (human) (assay: UV-ligand exchange with anti-b2m ELISA).

**Q.** B1 was tested. Which peptide exchange yield did it give?
**A.** The peptide exchange yield was 50 to 75%.

**Q.** B2 was tested. Which peptide exchange yield did it give?
**A.** The peptide exchange yield was 50 to 75%.

**Q.** With B3 as the binder, how does the peptide exchange yield read?
**A.** The peptide exchange yield was greater than 75%.

**Q.** With B4 as the binder, how does the peptide exchange yield read?
**A.** Its peptide exchange yield is 50 to 75%.

**Q.** How did the peptide exchange yield turn out when B5 was run?
**A.** The peptide exchange yield was 50 to 75%.

**Q.** For B6, which peptide exchange yield is on record?
**A.** Its peptide exchange yield is 50 to 75%.

**Q.** How did the peptide exchange yield turn out when B7 was run?
**A.** The peptide exchange yield was 20 to 49%.

**Q.** How did the peptide exchange yield turn out when B8 was run?
**A.** Its peptide exchange yield is 50 to 75%.

**Q.** B9 was tested. Which peptide exchange yield did it give?
**A.** Its peptide exchange yield is 50 to 75%.

**Q.** For B10, which peptide exchange yield is on record?
**A.** The peptide exchange yield was 50 to 75%.

**Q.** B11 was tested. Which peptide exchange yield did it give?
**A.** The peptide exchange yield was 20 to 49%.

**Q.** For B12, which peptide exchange yield is on record?
**A.** Its peptide exchange yield is greater than 75%.

**Q.** How did the peptide exchange yield turn out when B13 was run?
**A.** Its peptide exchange yield is 50 to 75%.

**Q.** How did the peptide exchange yield turn out when B14 was run?
**A.** The peptide exchange yield was 50 to 75%.

**Q.** How did the peptide exchange yield turn out when B15 was run?
**A.** The peptide exchange yield was 50 to 75%.

**Q.** For B16, which peptide exchange yield is on record?
**A.** The peptide exchange yield was 50 to 75%.

**Q.** With B17 as the binder, how does the peptide exchange yield read?
**A.** The peptide exchange yield was greater than 75%.
